# What was measured:
# [1] = tested on: grafted human occipital scalp HFs; assay: Human occipital scalp HF-on-SCID mouse xenograft model, grafted human HFs; assay type: in vivo; conditions: three daily doses on post-grafting day 30; counted on post-grafting day 50; compared to BSA (n=5), rhSCUBE3 n=6
# Source text: (§1) FIGS. 2A-2I. SCUBE3 induces hair growth. (2A) Expression of pan-isoform Scube3 mRNA in dorsal mouse skin at indicated postnatal time points. (2B) Time course analysis of dorsal hair growth patterns in representative control (top) and Scube3^−/− mice (bottom) between days P24-30. Mice were shaved before each round of photography. (2C) Representative images of microinjection sites for BSA (top) and rhSCUBE3 (bottom). Affi-gel blue agarose beads are visible. Newly growing anagen HFs are pigmented. (2D) Quantification of induced anagen HFs in response to rhSCUBE3 on day 14. n=7; *** P<0.0002. (2E) Representative images of microinjection sites for BSA (left) and rhSCUBE3 (right) on 20-month-old mice. Affi-gel blue agarose beads are visible. Newly growing anagen HFs are pigmented. (2F) Quantification of induced anagen HFs in aged mice on day 14 after protein injection. n=9; * P<0.0001. (2G) Expression of K14, KI67 and SCUBE3 mRNA in human anagen occipital scalp HF. […] (2I) Scattered plot of human and mouse anagen HF quantification. […]
# (§2) To start evaluating the translational potential of SCUBE3, first we examined its expression pattern in human anagen HFs from occipital scalp of volunteer donors, undergoing autologous hair transplantation procedures. […] Anagen phase human and adjacent mouse host HFs were then counted at each injection site on post-grafting day 50. […]
# [2] = tested on: mouse host HFs; assay: Human occipital scalp HF-on-SCID mouse xenograft model, adjacent mouse host HFs; assay type: in vivo; conditions: three daily doses on post-grafting day 30; counted on post-grafting day 50; compared to BSA (n=5), rhSCUBE3 n=6
# Source text: as §1, §2
# [3] = tested on: anagen HFs; assay: Intradermal microinjection of protein in mice starting at P48, induced anagen HFs counted on day 14; assay type: in vivo, mouse; conditions: intradermally microinjected for four days starting at P48; compared on day 14 to BSA; n=7
# Source text: (§3) FIGS. 2A-2I. SCUBE3 induces hair growth. (2A) Expression of pan-isoform Scube3 mRNA in dorsal mouse skin at indicated postnatal time points. (2B) Time course analysis of dorsal hair growth patterns in representative control (top) and Scube3^−/− mice (bottom) between days P24-30. Mice were shaved before each round of photography. (2C) Representative images of microinjection sites for BSA (top) and rhSCUBE3 (bottom). Affi-gel blue agarose beads are visible. Newly growing anagen HFs are pigmented. (2D) Quantification of induced anagen HFs in response to rhSCUBE3 on day 14. n=7; *** P<0.0002. (2E) Representative images of microinjection sites for BSA (left) and rhSCUBE3 (right) on 20-month-old mice. Affi-gel blue agarose beads are visible. Newly growing anagen HFs are pigmented. (2F) Quantification of induced anagen HFs in aged mice on day 14 after protein injection. n=9; * P<0.0001. (2G) Expression of K14, KI67 and SCUBE3 mRNA in human anagen occipital scalp HF. SCUBE3 mRNA is specifically and highly expressed in DP and adjacent dermal sheath cup. (2H) Representative images of microinjection sites for BSA and rhSCUBE3 in human occipital scalp HF-on-SCID mouse xenograft model. (2I) Scattered plot of human and mouse anagen HF quantification. Striped dots represent rhSCUBE3-injected samples and solid dots represent BSA-injected samples. Tissue sections were counterstained with DAPI in 2A, 2G. […]
# [4] = tested on: anagen HFs; assay: Intradermal protein microinjection in aged mice over 20 months of age, induced anagen HFs on day 14; assay type: in vivo, mouse; conditions: day 14 after protein injection, n=9
# Source text: as §3
molecule,measurement,setting,value
"rhSCUBE3: recombinant human SCUBE3 (Signal Peptide, CUB Domain And EGF Like Domain Containing 3) protein (protein, listed as Homo sapiens) CGGELGEFTGYIESPNYPGNYPAGVECIWNINPPPKRKILIVVPEIFLPSEDECGDVLVMRKNSSPSSITTYETCQTYERPIAFTARSRKLWINFKTSEANSARGFQIPYVTYDEDYEQLVEDIVRDGRLYASENHQEILKDKKLIKAFFEVLAHPQNYFKYTEKHKEMLPKSFIKLLRSKVSSFLRPYK",anagen entry of grafted human HFs,[1],accelerated anagen entry of grafted human HFs
same,new anagen of mouse host HFs,[2],stimulated new anagen of mouse host HFs
same,"new hair growth (induced anagen HFs), mean difference compared to BSA",[3],18+/−3.44
same,"new hair growth at the injection sites (induced anagen HFs), mean difference vs BSA",[4],31.78+/−2.40

# Reference: patent US20250295571A1, “COMPOSITIONS AND METHODS FOR STIMULATION OF HAIR GROWTH” (THE REGENTS OF THE UNIVERSITY OF CALIFORNIA, priority 2022, published 2025)
